We go through one substance from patent US20210355238A1.

Test [1] concerns the target Antigen B (monomeric lower molecular weight protein). Nature of the test: Biacore SPR at 25°C; mAb captured on anti-human Fc (236.1±0.8 RU), Antigen B injected at 90 nM. Background: Surface plasmon resonance follows binding to a sensor surface in real time, without labels.
Test [2] concerns the target Antigen A (multivalent high molecular weight protein). Nature of the test: Biacore SPR at 25°C; mAb captured on anti-human Fc (236.5±1.0 RU), Antigen A injected at 100 nM.

In turn, isotype control antibody (CI) returned an Antigen B bound - 90 nM (RU) in test [1] of 7 RU. In addition, the Antigen A bound - 100 nM (RU) in test [2] came to 18 RU.
